Source: PMC9482650, “Quantitative fragmentomics allow affinity mapping of interactomes” (Nature Communications, 2022)

target: T1, GRIP1_4, Q9Y3R0; test: holdup assay; design: key: below the threshold = too weak to quantify, mostly under pKd 3.1 to 4; details: plain residues with an end cap or a label only (N-terminal biotin on a linker: ado-ado)
T1 sequence (Q9Y3R0 467-571, limits assumed, looked up): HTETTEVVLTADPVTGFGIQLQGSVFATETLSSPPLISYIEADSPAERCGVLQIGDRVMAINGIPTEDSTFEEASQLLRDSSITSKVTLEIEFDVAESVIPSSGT

Binder	pKd
SKQFDKNAYV [CLDN10, P78369]	below the threshold

target: FRMPD4, Q14CM0; test: holdup assay; design: key: below the threshold = too weak to quantify, mostly under pKd 3.1 to 4; details: plain residues with an end cap or a label only (N-terminal biotin on a linker: ado-ado)
Sequence (Q14CM0 67-160): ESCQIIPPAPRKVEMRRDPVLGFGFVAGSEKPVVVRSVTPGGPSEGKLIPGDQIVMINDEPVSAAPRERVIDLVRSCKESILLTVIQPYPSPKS

Binder	pKd
SKQFDKNAYV [CLDN10, P78369]	3.59

target: T2, LNX2_2, Q8N448; test: holdup assay; design: key: below the threshold = too weak to quantify, mostly under pKd 3.1 to 4; details: plain residues with an end cap or a label only (N-terminal biotin on a linker: ado-ado)
T2 sequence (Q8N448 334-432, limits assumed, looked up): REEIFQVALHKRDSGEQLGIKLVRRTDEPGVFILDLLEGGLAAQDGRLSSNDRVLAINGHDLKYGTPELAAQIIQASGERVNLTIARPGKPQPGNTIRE

Binder	pKd
SKQFDKNAYV [CLDN10, P78369]	4.1

target: T3, LNX2_3, Q8N448; test: holdup assay; design: key: below the threshold = too weak to quantify, mostly under pKd 3.1 to 4; details: plain residues with an end cap or a label only (N-terminal biotin on a linker: ado-ado)
T3 sequence (Q8N448 463-564, limits assumed, looked up): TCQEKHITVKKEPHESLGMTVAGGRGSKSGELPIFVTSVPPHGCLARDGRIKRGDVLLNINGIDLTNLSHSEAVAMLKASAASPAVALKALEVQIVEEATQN

Binder	pKd
SKQFDKNAYV [CLDN10, P78369]	below the threshold

target: T4, RADIL, Q96JH8; test: holdup assay; design: key: below the threshold = too weak to quantify, mostly under pKd 3.1 to 4; details: plain residues with an end cap or a label only (N-terminal biotin on a linker: ado-ado)
T4 sequence (Q96JH8 971-1071, limits assumed, looked up): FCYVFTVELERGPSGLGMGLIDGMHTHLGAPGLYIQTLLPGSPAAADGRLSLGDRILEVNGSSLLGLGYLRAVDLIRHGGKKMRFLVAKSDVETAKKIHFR

Binder	pKd
SKQFDKNAYV [CLDN10, P78369]	4.18

target: T5, NHERF3_1, Q5T2W1; test: holdup assay; design: key: below the threshold = too weak to quantify, mostly under pKd 3.1 to 4; details: plain residues with an end cap or a label only (N-terminal biotin on a linker: ado-ado)
T5 sequence (Q5T2W1 4-100, limits assumed, looked up): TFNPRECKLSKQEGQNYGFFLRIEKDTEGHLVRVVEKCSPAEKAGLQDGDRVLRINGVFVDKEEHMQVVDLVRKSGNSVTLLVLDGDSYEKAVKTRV

Binder	pKd
SKQFDKNAYV [CLDN10, P78369]	4.85

target: T6, MPP2, Q14168; test: holdup assay; design: key: below the threshold = too weak to quantify, mostly under pKd 3.1 to 4; details: plain residues with an end cap or a label only (N-terminal biotin on a linker: ado-ado)
T6 sequence (Q14168 180-250, limits assumed, looked up): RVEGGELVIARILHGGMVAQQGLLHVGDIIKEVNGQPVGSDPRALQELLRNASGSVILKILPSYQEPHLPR

Binder	pKd
SKQFDKNAYV [CLDN10, P78369]	below the threshold

target: T7, LIN7B, Q9HAP6; test: holdup assay; design: key: below the threshold = too weak to quantify, mostly under pKd 3.1 to 4; details: plain residues with an end cap or a label only (N-terminal biotin on a linker: ado-ado)
T7 sequence (Q9HAP6 88-185, limits assumed, looked up): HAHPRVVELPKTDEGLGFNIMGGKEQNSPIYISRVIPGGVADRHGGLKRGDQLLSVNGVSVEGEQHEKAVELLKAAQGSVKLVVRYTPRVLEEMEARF

Binder	pKd
SKQFDKNAYV [CLDN10, P78369]	below the threshold

target: IL16_4, Q14005; test: holdup assay; design: key: below the threshold = too weak to quantify, mostly under pKd 3.1 to 4; details: plain residues with an end cap or a label only (N-terminal biotin on a linker: ado-ado)
Sequence (Q14005 1229-1329): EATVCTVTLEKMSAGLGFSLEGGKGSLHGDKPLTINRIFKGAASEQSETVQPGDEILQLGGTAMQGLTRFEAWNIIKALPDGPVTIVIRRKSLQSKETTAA

Binder	pKd
SKQFDKNAYV [CLDN10, P78369]	below the threshold

target: SNX27, Q96L92; test: holdup assay; design: key: below the threshold = too weak to quantify, mostly under pKd 3.1 to 4; details: plain residues with an end cap or a label only (N-terminal biotin on a linker: ado-ado)

Binder	pKd
SKQFDKNAYV [CLDN10, P78369]	3.78

target: IL16_3, Q14005; test: holdup assay; design: key: below the threshold = too weak to quantify, mostly under pKd 3.1 to 4; details: plain residues with an end cap or a label only (N-terminal biotin on a linker: ado-ado)
Sequence (Q14005 1107-1207): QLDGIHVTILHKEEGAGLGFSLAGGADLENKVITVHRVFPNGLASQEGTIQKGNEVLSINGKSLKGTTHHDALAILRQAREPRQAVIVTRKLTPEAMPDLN

Binder	pKd
SKQFDKNAYV [CLDN10, P78369]	below the threshold

target: Inadl_2, Q8NI35; test: holdup assay; design: key: below the threshold = too weak to quantify, mostly under pKd 3.1 to 4; details: plain residues with an end cap or a label only (N-terminal biotin on a linker: ado-ado)
Sequence (Q8NI35 238-335): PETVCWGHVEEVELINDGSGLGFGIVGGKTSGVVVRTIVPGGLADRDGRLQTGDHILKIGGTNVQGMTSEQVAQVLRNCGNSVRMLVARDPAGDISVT

Binder	pKd
SKQFDKNAYV [CLDN10, P78369]	below the threshold

target: T8, ARHGEF11, O15085; test: holdup assay; design: key: below the threshold = too weak to quantify, mostly under pKd 3.1 to 4; details: plain residues with an end cap or a label only (N-terminal biotin on a linker: ado-ado)
T8 sequence (O15085 42-136, limits assumed, looked up): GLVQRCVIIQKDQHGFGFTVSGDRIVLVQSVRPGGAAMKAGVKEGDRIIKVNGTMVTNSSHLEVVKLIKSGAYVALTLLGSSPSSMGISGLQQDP

Binder	pKd
SKQFDKNAYV [CLDN10, P78369]	below the threshold

target: MAGI2_2, Q86UL8; test: holdup assay; design: key: below the threshold = too weak to quantify, mostly under pKd 3.1 to 4; details: plain residues with an end cap or a label only (N-terminal biotin on a linker: ado-ado)
Sequence (Q86UL8 410-522): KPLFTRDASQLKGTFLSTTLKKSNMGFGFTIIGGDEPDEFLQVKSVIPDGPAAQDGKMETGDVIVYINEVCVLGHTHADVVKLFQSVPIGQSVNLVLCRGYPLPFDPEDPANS

Binder	pKd
SKQFDKNAYV [CLDN10, P78369]	below the threshold

target: T9, DVL3, Q92997; test: holdup assay; design: key: below the threshold = too weak to quantify, mostly under pKd 3.1 to 4; details: plain residues with an end cap or a label only (N-terminal biotin on a linker: ado-ado)
T9 sequence (Q92997 244-331, limits assumed, looked up): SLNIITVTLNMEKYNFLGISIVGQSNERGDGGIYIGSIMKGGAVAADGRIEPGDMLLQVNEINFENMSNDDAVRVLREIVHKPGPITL

Binder	pKd
SKQFDKNAYV [CLDN10, P78369]	below the threshold

target: LAP2, Q96RT1; test: holdup assay; design: key: below the threshold = too weak to quantify, mostly under pKd 3.1 to 4; details: plain residues with an end cap or a label only (N-terminal biotin on a linker: ado-ado)
Sequence (Q96RT1 other isoform, or with tags, fused parts or gaps): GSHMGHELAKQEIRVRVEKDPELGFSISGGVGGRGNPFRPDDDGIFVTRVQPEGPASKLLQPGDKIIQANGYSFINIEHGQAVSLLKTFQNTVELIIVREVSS

Binder	pKd
SKQFDKNAYV [CLDN10, P78369]	below the threshold

target: TJP2_1, Q9UDY2; test: holdup assay; design: key: below the threshold = too weak to quantify, mostly under pKd 3.1 to 4; details: plain residues with an end cap or a label only (N-terminal biotin on a linker: ado-ado)
Sequence (Q9UDY2 24-128): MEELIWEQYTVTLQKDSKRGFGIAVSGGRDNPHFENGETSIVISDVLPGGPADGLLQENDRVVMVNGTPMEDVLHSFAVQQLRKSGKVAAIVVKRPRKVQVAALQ

Binder	pKd
SKQFDKNAYV [CLDN10, P78369]	4.19

target: GRIP2_5, Q9C0E4; test: holdup assay; design: key: below the threshold = too weak to quantify, mostly under pKd 3.1 to 4; details: plain residues with an end cap or a label only (N-terminal biotin on a linker: ado-ado)
Sequence (Q9C0E4 544-642): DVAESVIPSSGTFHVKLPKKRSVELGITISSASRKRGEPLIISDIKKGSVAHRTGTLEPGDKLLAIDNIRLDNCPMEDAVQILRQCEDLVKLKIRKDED

Binder	pKd
SKQFDKNAYV [CLDN10, P78369]	below the threshold

target: PARD3_3, Q8TEW0; test: holdup assay; design: key: below the threshold = too weak to quantify, mostly under pKd 3.1 to 4; details: plain residues with an end cap or a label only (N-terminal biotin on a linker: ado-ado)
Sequence (Q8TEW0 582-685): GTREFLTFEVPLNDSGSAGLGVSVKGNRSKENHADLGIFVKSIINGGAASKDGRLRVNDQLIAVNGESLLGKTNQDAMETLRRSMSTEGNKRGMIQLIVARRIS

Binder	pKd
SKQFDKNAYV [CLDN10, P78369]	below the threshold

target: T10, GRIP1_5, Q9Y3R0; test: holdup assay; design: key: below the threshold = too weak to quantify, mostly under pKd 3.1 to 4; details: plain residues with an end cap or a label only (N-terminal biotin on a linker: ado-ado)
T10 sequence (Q9Y3R0 568-668, limits assumed, looked up): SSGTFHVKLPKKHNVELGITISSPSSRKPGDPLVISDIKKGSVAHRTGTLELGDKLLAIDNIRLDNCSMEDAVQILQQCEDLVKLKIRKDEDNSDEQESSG

Binder	pKd
SKQFDKNAYV [CLDN10, P78369]	below the threshold

target: GIPC2, Q8TF65; test: holdup assay; design: key: below the threshold = too weak to quantify, mostly under pKd 3.1 to 4; details: plain residues with an end cap or a label only (N-terminal biotin on a linker: ado-ado)
Sequence (Q8TF65 112-203): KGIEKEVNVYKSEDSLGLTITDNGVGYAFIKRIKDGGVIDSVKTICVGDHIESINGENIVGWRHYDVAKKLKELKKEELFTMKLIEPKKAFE

Binder	pKd
SKQFDKNAYV [CLDN10, P78369]	below the threshold

target: DLG1_2, Q12959; test: holdup assay; design: key: below the threshold = too weak to quantify, mostly under pKd 3.1 to 4; details: plain residues with an end cap or a label only (N-terminal biotin on a linker: ado-ado)
Sequence (Q12959 314-412): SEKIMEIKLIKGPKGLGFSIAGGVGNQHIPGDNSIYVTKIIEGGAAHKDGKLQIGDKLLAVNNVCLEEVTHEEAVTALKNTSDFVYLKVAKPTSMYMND

Binder	pKd
SKQFDKNAYV [CLDN10, P78369]	below the threshold

target: T11, DLG3_3, Q92796; test: holdup assay; design: key: below the threshold = too weak to quantify, mostly under pKd 3.1 to 4; details: plain residues with an end cap or a label only (N-terminal biotin on a linker: ado-ado)
T11 sequence (Q92796 374-475, limits assumed, looked up): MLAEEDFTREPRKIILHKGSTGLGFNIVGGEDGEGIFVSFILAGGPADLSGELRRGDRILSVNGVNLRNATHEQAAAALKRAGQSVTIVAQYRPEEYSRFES

Binder	pKd
SKQFDKNAYV [CLDN10, P78369]	below the threshold

target: MAST2, Q6P0Q8; test: holdup assay; design: key: below the threshold = too weak to quantify, mostly under pKd 3.1 to 4; details: plain residues with an end cap or a label only (N-terminal biotin on a linker: ado-ado)
Sequence (Q6P0Q8 1099-1202): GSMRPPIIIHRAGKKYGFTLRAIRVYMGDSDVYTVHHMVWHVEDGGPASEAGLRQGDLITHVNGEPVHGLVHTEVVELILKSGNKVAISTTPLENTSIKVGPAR

Binder	pKd
SKQFDKNAYV [CLDN10, P78369]	4.02

target: T12, TIAM2, Q8IVF5; test: holdup assay; design: key: below the threshold = too weak to quantify, mostly under pKd 3.1 to 4; details: plain residues with an end cap or a label only (N-terminal biotin on a linker: ado-ado)
T12 sequence (Q8IVF5 885-986, limits assumed, looked up): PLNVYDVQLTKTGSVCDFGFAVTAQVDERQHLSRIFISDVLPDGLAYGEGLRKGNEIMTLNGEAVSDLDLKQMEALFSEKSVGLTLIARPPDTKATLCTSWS

Binder	pKd
SKQFDKNAYV [CLDN10, P78369]	below the threshold

target: NOS1, P29475; test: holdup assay; design: key: below the threshold = too weak to quantify, mostly under pKd 3.1 to 4; details: plain residues with an end cap or a label only (N-terminal biotin on a linker: ado-ado)
Sequence (P29475 9-101): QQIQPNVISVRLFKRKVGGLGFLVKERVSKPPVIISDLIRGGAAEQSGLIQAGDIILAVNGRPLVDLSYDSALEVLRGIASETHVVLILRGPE

Binder	pKd
SKQFDKNAYV [CLDN10, P78369]	3.61
